According to US20210054097A1 (Novo Nordisk, published 2021):
Ends that are not written are not given here.

Tests used:
Test in all cases: peptide ELISA
[1] = biological target: T1, FX activation peptide 12-mer APDSITWKPYDA (human)
T1 peptide: APDSITWKPYDA-biotin
Procedure, shortened: (§1)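 Nanobodies (FLAG-tagged) or IgG antibodies, 2 μg/mL, incubated 1 h on C-terminally biotinylated peptide captured via streptavidin, washing buffer pH 8.60 containing CaCl₂ and Tween 20. Read-out: HRP-conjugated secondary antibody with TMB colour development.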

[2] = biological target: T2, FX activation peptide 12-mer ITWKPYDAADLD (human)
T2 peptide: ITWKPYDAADLD-biotin
Procedure, shortened: as §1

[3] = biological target: T3, FX activation peptide 12-mer EAPDSITWKPYD (human)
T3 peptide: EAPDSITWKPYD-biotin
Procedure, shortened: as §1

[4] = biological target: T4, FX activation peptide 12-mer SGEAPDSITWKP (human)
T4 peptide: SGEAPDSITWKP-biotin
Procedure, shortened: as §1

[5] = biological target: T5, FX activation peptide 12-mer TQPERGDNNLTR (human)
T5 peptide: TQPERGDNNLTR-biotin
Procedure, shortened: as §1

[6] = biological target: T6, FX activation peptide 12-mer KPYDAADLDPTE (human)
T6 peptide: KPYDAADLDPTE-biotin
Procedure, shortened: as §1

[7] = biological target: T7, FX activation peptide 12-mer ENPFDLLDFNQT (human)
T7 peptide: ENPFDLLDFNQT-biotin
Procedure, shortened: as §1

[8] = biological target: T8, FX activation peptide 12-mer DLDPTENPFDLL (human)
T8 peptide: DLDPTENPFDLL-biotin
Procedure, shortened: as §1

[9] = biological target: T9, FX activation peptide 12-mer NPFDLLDFNQTQ (human)
T9 peptide: NPFDLLDFNQTQ-biotin
Procedure, shortened: as §1

[10] = biological target: T10, FX activation peptide 12-mer FDLLDFNQTQPE (human)
T10 peptide: FDLLDFNQTQPE-biotin
Procedure, shortened: as §1

[11] = biological target: T11, FX activation peptide 12-mer SSSGEAPDSITW (human)
T11 peptide: SSSGEAPDSITW-biotin
Procedure, shortened: as §1

[12] = biological target: T12, FX activation peptide 12-mer YDAADLDPTENP (human)
T12 peptide: YDAADLDPTENP-biotin
Procedure, shortened: as §1

[13] = biological target: T13, FX activation peptide 12-mer TWKPYDAADLDP (human)
T13 peptide: TWKPYDAADLDP-biotin
Procedure, shortened: as §1

[14] = biological target: T14, FX activation peptide 12-mer PYDAADLDPTEN (human)
T14 peptide: PYDAADLDPTEN-biotin
Procedure, shortened: as §1

[15] = biological target: T15, FX activation peptide 12-mer AQATSSSGEAPD (human)
T15 peptide: AQATSSSGEAPD-biotin
Procedure, shortened: as §1

[16] = biological target: T16, FX activation peptide 12-mer DSITWKPYDAAD (human)
T16 peptide: DSITWKPYDAAD-biotin
Procedure, shortened: as §1

[17] = biological target: T17, FX activation peptide 12-mer AADLDPTENPFD (human)
T17 peptide: AADLDPTENPFD-biotin
Procedure, shortened: as §1

[18] = biological target: T18, FX activation peptide 12-mer SSGEAPDSITWK (human)
T18 peptide: SSGEAPDSITWK-biotin
Procedure, shortened: as §1

[19] = biological target: T19, FX activation peptide 12-mer LDPTENPFDLLD (human)
T19 peptide: LDPTENPFDLLD-biotin
Procedure, shortened: as §1

[20] = biological target: T20, FX activation peptide 12-mer TENPFDLLDFNQ (human)
T20 peptide: TENPFDLLDFNQ-biotin
Procedure, shortened: as §1

[21] = biological target: T21, FX activation peptide 12-mer DLLDFNQTQPER (human)
T21 peptide: DLLDFNQTQPER-biotin
Procedure, shortened: as §1

[22] = biological target: T22, FX activation peptide 12-mer LDFNQTQPERGD (human)
T22 peptide: LDFNQTQPERGD-biotin
Procedure, shortened: as §1

[23] = biological target: T23, FX activation peptide 12-mer DFNQTQPERGDN (human)
T23 peptide: DFNQTQPERGDN-biotin
Procedure, shortened: as §1

[24] = biological target: T24, FX activation peptide 12-mer QATSSSGEAPDS (human)
T24 peptide: QATSSSGEAPDS-biotin
Procedure, shortened: as §1

[25] = biological target: T25, FX activation peptide 12-mer NQTQPERGDNNL (human)
T25 peptide: NQTQPERGDNNL-biotin
Procedure, shortened: as §1

[26] = biological target: T26, FX activation peptide 12-mer ATSSSGEAPDSI (human)
T26 peptide: ATSSSGEAPDSI-biotin
Procedure, shortened: as §1

[27] = biological target: T27, FX activation peptide 12-mer FNQTQPERGDNN (human)
T27 peptide: FNQTQPERGDNN-biotin
Procedure, shortened: as §1

[28] = biological target: T28, FX activation peptide 12-mer SITWKPYDAADL (human)
T28 peptide: SITWKPYDAADL-biotin
Procedure, shortened: as §1

[29] = biological target: T29, FX activation peptide 12-mer WKPYDAADLDPT (human)
T29 peptide: WKPYDAADLDPT-biotin
Procedure, shortened: as §1

[30] = biological target: T30, FX activation peptide 12-mer GEAPDSITWKPY (human)
T30 peptide: GEAPDSITWKPY-biotin
Procedure, shortened: as §1

[31] = biological target: T31, FX activation peptide 12-mer TSSSGEAPDSIT (human)
T31 peptide: TSSSGEAPDSIT-biotin
Procedure, shortened: as §1

[32] = biological target: T32, FX activation peptide 12-mer DAADLDPTENPF (human)
T32 peptide: DAADLDPTENPF-biotin
Procedure, shortened: as §1

[33] = biological target: T33, FX activation peptide 12-mer QTQPERGDNNLT (human)
T33 peptide: QTQPERGDNNLT-biotin
Procedure, shortened: as §1

B1: Nb 501A02 (VHH)
VHH: EVQLVESGGGLVQPGGSLRLSCAASGFTFSNYEMSWVRQAPGKGLEWVSDIGSGGGVSTYYADSVKGRFTISRDNAKNTLYLQMNSLKPEDTAMYYCARGWTYGSDGMDYWGKGTLVTVSS
notes: monovalent control Nanobody; also called control Nanobody; not shown: C-terminal FLAG3 and HIS6 tag
With B1 the “ELISA signal relative to background” value [1] was 0.74, the binding result [1] was “no binding (tested: 2 µg/mL)” and the “ELISA signal relative to background” value [2] was 0.74. For the same binder, the binding result [2] was “no binding (tested: 2 µg/mL)”, the “ELISA signal relative to background” value [3] was 0.76 and the binding result [3] was “no binding (tested: 2 µg/mL)”. For the same binder, the “ELISA signal relative to background” value [4] was 0.76, the binding result [4] was “no binding (tested: 2 µg/mL)” and the “ELISA signal relative to background” value [5] was 0.85. The binding result [5] was “no binding (tested: 2 µg/mL)”, the “ELISA signal relative to background” value [6] was 0.82 and the binding result [6] was “no binding (tested: 2 µg/mL)”. The “ELISA signal relative to background” value [7] was 0.82, the binding result [7] was “no binding (tested: 2 µg/mL)” and the “ELISA signal relative to background” value [8] was 0.79. For the same binder, the binding result [8] was “no binding (tested: 2 µg/mL)”, the “ELISA signal relative to background” value [9] was 0.94 and the binding result [9] was “no binding (tested: 2 µg/mL)”. For the same binder, the “ELISA signal relative to background” value [10] was 0.85, the binding result [10] was “no binding (tested: 2 µg/mL)” and the “ELISA signal relative to background” value [11] was 0.82. For the same binder, the binding result [11] was “no binding (tested: 2 µg/mL)”, the “ELISA signal relative to background” value [12] was 0.71 and the binding result [12] was “no binding (tested: 2 µg/mL)”. The “ELISA signal relative to background” value [13] was 0.74, the binding result [13] was “no binding (tested: 2 µg/mL)” and the “ELISA signal relative to background” value [14] was 0.79. The binding result [14] was “no binding (tested: 2 µg/mL)”, the “ELISA signal relative to background” value [15] was 0.79 and the binding result [15] was “no binding (tested: 2 µg/mL)”. The “ELISA signal relative to background” value [16] was 0.79, the binding result [16] was “no binding (tested: 2 µg/mL)” and the “ELISA signal relative to background” value [17] was 0.79. For the same binder, the binding result [17] was “no binding (tested: 2 µg/mL)”, the “ELISA signal relative to background” value [18] was 0.71 and the binding result [18] was “no binding (tested: 2 µg/mL)”. For the same binder, the “ELISA signal relative to background” value [19] was 0.91, the binding result [19] was “no binding (tested: 2 µg/mL)” and the “ELISA signal relative to background” value [20] was 1.09. For the same binder, the binding result [20] was “no binding (tested: 2 µg/mL)”, the “ELISA signal relative to background” value [21] was 0.76 and the binding result [21] was “no binding (tested: 2 µg/mL)”. The “ELISA signal relative to background” value [22] was 0.74, the binding result [22] was “no binding (tested: 2 µg/mL)” and the “ELISA signal relative to background” value [23] was 0.71. The binding result [23] was “no binding (tested: 2 µg/mL)”, the “ELISA signal relative to background” value [24] was 0.82 and the binding result [24] was “no binding (tested: 2 µg/mL)”. For the same binder, the “ELISA signal relative to background” value [25] was 0.71, the binding result [25] was “no binding (tested: 2 µg/mL)” and the “ELISA signal relative to background” value [26] was 0.82. For the same binder, the binding result [26] was “no binding (tested: 2 µg/mL)”, the “ELISA signal relative to background” value [27] was 0.71 and the binding result [27] was “no binding (tested: 2 µg/mL)”. For the same binder, the “ELISA signal relative to background” value [28] was 0.71, the binding result [28] was “no binding (tested: 2 µg/mL)” and the “ELISA signal relative to background” value [29] was 0.74. The binding result [29] was “no binding (tested: 2 µg/mL)”, the “ELISA signal relative to background” value [30] was 0.94 and the binding result [30] was “no binding (tested: 2 µg/mL)”. The “ELISA signal relative to background” value [31] was 0.76, the binding result [31] was “no binding (tested: 2 µg/mL)” and the “ELISA signal relative to background” value [32] was 0.88. For the same binder, the binding result [32] was “no binding (tested: 2 µg/mL)”, the “ELISA signal relative to background” value [33] was 0.76 and the binding result [33] was “no binding (tested: 2 µg/mL)”.
